Results as given in patent US20260347441 (published 2026).

Columns and labels:
polatuzumab vedotin = polatuzumab vedotin (humanized); assay: SPR
human serum albumin = human serum albumin (human, UniProt P02768); assay: SPR

Sequence of polatuzumab vedotin (humanized) (VH, as listed by the source, chain 1 of 2): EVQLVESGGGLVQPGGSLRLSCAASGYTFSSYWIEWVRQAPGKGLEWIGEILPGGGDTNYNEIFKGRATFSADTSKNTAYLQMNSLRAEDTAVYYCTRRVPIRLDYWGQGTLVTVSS
Sequence of polatuzumab vedotin (humanized) (VL, as listed by the source, chain 2 of 2): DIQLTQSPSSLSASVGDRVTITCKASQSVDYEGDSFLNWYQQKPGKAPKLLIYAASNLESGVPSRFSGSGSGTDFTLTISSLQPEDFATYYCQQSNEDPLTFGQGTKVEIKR

binding result (polatuzumab vedotin)	Kd (human serum albumin) [µM]	Binder
no binding	–	ABC3315 (antibody, V domains shown, peg12-biotin conjugated, immobilized on streptavidin; vc-MMAE conjugate (ADC)) VH: EVQLVESGGGLVKPGGSLKLSCAASGFTFSGYAMSWFRQAPEKRLEWVATISSGGSYTYYLDSVKGRFTISRDNSKNTLYLQMSSLRSEDTAVYYCLASLITTDYFEYWGQGTLVTVSS VL: DIVMTQSPSSLSASVGDRVTITCRASQDVGTAVAWYQQKPGQSPKLLIYWASTRHTGVPDRFSGSGSGTDFTLTISGLQSEDEADYFCQQYSNYPYTFGGGTKLEIKR
–	2.34	ABC3315-WEDD (antibody, V domains shown) VH: EVQLVESGGGLVKPGGSLKLSCAASGFTFSGYAMSWFRQAPEKRLEWVATISSGGSYTYYLDSVKGRFTISRDNSKNTLYLQMSSLRSEDTAVYYCLASLITTDYFEYWGQGTLVTVSS VL: DIVMTQSPSSLSASVGDRVTITCRASQDVGTAVAWYQQKPGQSPKLLIYWASTRHTGVPDRFSGSGSGTDFTLTISGLQSEDEADYFCQQYSNYPYTFGGGTKLEIKR
–	10.5	ABC3315-WE (antibody, V domains shown) VH: EVQLVESGGGLVKPGGSLKLSCAASGFTFSGYAMSWFRQAPEKRLEWVATISSGGSYTYYLDSVKGRFTISRDNSKNTLYLQMSSLRSEDTAVYYCLASLITTDYFEYWGQGTLVTVSS VL: DIVMTQSPSSLSASVGDRVTITCRASQDVGTAVAWYQQKPGQSPKLLIYWASTRHTGVPDRFSGSGSGTDFTLTISGLQSEDEADYFCQQYSNYPYTFGGGTKLEIKR
